Data on 7 molecules can be found in paper PMC9056652.

Changes are numbered by the printed parent chain.

For data set [1], the target named is T1, wt-Obe (tag-free obelin) (UniProt Q27709 1-195).
T1 sequence: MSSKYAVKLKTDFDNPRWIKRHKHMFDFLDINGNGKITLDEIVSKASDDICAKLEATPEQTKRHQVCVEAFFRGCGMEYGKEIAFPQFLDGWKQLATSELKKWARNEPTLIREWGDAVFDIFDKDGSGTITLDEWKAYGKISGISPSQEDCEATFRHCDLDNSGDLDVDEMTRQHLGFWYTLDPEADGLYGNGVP
The data set can be described thus: DRaCALA.

Data set [2] addresses T1, wt-Obe (tag-free obelin). In words: solid-phase bioluminescent assay.

B1: O79t (structured_RNA)
RNA: GGGAGACAAGAAUAAACGCUCAAUGUGAAGUCGCAUUUAAUUGCUGGCGCCGUUUACUUGCUC
modifications: 2'-F on all C and U
Turning to B1, in the data set with wt-Obe (tag-free obelin) [1], the Kd came to 720 nM.

B2: O3t (structured_RNA)
RNA: B1 RNA with U36C, A40G, C50U
modifications: 2'-F on all C and U
For the molecule B2, binding with wt-Obe (tag-free obelin) [1] was put at a Kd of 1370 nM. This Kd is about 1.9-fold higher than that of the molecule before.

B3: O6t (structured_RNA)
RNA: GGGAGACAAGAAUAAACGCUCAAGACGUGCGCGGGAAAGACCGACGCUCUACCCCUACAAGCU
modifications: 2'-F on all C and U
With B3, in the data set with wt-Obe (tag-free obelin) [1], the binding result is recorded as “no binding”.

B4: O35 (structured_RNA)
RNA: GGGAGACAAGAAUAAACGCUCAAUAGGGUACGCGGACAGCGAUGGGACCGCGUUGCCAGCCCCUUCGACAGGAGGCUCACAACAGGC
modifications: 2'-F on all C and U
Turning to B4, the binding result with wt-Obe (tag-free obelin) [1] is recorded as “no binding”.

B5: O79 (structured_RNA)
RNA: GGGAGACAAGAAUAAACGCUCAAUGUGAAGUCGCAUUUAAUUGCUGGCGCCGUUUACUUGCUCUUCGACAGGAGGCUCACAACAGGC
modifications: 2'-F on all C and U
In the data set with wt-Obe (tag-free obelin) [1], B5 displayed a dissociation constant (Kd) of 690 nM.

B6: O4t (structured_RNA)
RNA: GGGAGACAAGAAUAAACGCUCAACUAGGCUGUGCGCGGUGCCCUAUCUUAUCCGCGCCUCUCCU
modifications: 2'-F on all C and U
In the case of B6, the binding result in the data set with wt-Obe (tag-free obelin) [1] is on record as “no binding”.

B7: O5 (structured_RNA)
RNA: GGGAGACAAGAAUAAACGCUCAAGUUGUACGCGGUUGGCAAUCCGCGUUGCUUUACGGGUUCCUUCGACAGGAGGCUCACAACAGGC
modifications: 2'-F on all C and U
As for B7, the binding result with wt-Obe (tag-free obelin) [2] was “binds”.
